Laboratory results as given in PMC9496217, “Structural Basis of a Novel Agonistic Anti-OX40 Antibody” (Biomolecules, 2022).

Legend:
Settings in all cases: both partners purified
[1] = molecular target: T1, human OX40 extracellular domain (recombinant, C-terminal His tag) (Homo sapiens); test: ELISA; human OX40 variants coated on a 96-well plate; serially diluted antibody added for 2 h at 37 °C; detected with goat (Fab')2 anti-human IgG Fc (HRP)
T1 construct: OX40 (TNFRSF4, CD134), human, extracellular domain (four cysteine-rich domains CRD1-4); The deposited entries 8AG1 and 7YK4 hold the construct; also called hOX40; TNFRSF4; source: HEK293F, transient expression, purified (HisTrap, Superdex 200 gel filtration)
T1 chain: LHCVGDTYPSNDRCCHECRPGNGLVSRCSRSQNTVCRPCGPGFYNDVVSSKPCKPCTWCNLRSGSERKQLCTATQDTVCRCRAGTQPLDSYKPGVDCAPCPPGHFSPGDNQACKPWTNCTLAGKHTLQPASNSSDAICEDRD

[2] = molecular target: T2, OX40-G70A (human, UniProt P43489, G70A); test: BLI; DF004 (10 μg/mL) loaded on protein A sensors; OX40 variants as two-fold serial dilutions in PBS with 1% BSA; association 120 s, dissociation up to 320 s; Octet K2
T2 construct: OX40 (TNFRSF4), human, extracellular domain with G70A; Tag and host are told for recombinant OX40 in general, not for the variants by name; also called G70A variant of human OX40; source: HEK293F, transient expression, purified (told for recombinant human OX40 in general)

[3] = molecular target: T1, human OX40 extracellular domain …; test: as above

EC50 [1]: ~0.09 nM | fold decrease of binding affinity against wild-type OX40 (kd value) [2]: ~32 fold | Kd [3]: 4.39 nM
B1: DF004 (full antibody, IgG1) (antibody, V domains shown)
VH: QVQLQQSGPGLVKPSQTLSLTCAISGDSVSSNSVSWDWIRQSPSRGLEWLGRTYYRSKWYNEYAVSVESRITINPDTSKNQFSLQLNSVTPEDTAIYFCVRNDYFFDLWGRGTLVTVSS
VL: EIVLTQSPATLSLSPGERATLSCRASQSVGSYLAWYQQKPGQAPRLLIYDASNRATGIPARFSGSGSGTDFTLTISSLEPEDFAVYYCQQRSNWPPGYTFGQGTKLEIK
notes: VH of DF004, as in the heavy chain (VH-CH1) of m3; IgG1 constant region; as the light chain (VL-CL) of m3; IgG1; scFv clone from a yeast display library made from PBMCs of healthy human donors, variable fragments grafted onto IgG1 Fc; source: HEK293F, transient expression, purified from the expression medium (protein A column)
